In the data set the test system is MS2 coat protein. The data set is described as follows: apparent KD of MS2 coat protein; designed switch direction (-1 OFF switch, 1 ON switch): -1; higher = weaker reporter binding. The gist of the method:
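An oligonucleotide input, 200 uM small-molecule ligand, or no input was present during titration of SNAP-549-labelled MS2 coat protein, which was doubled from 0.7 or 1.5 nM to 3 µM. Designed RNA switches had been transcribed on Illumina chips by stalled E. coli RNA polymerase. Apparent KD per design is the median over clusters of curves fitted to normalised cluster fluorescence.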

[1] abbreviates: input ligand: microRNA oligo, concentration not stated.
Where [2] appears, read: Eterna round: R95, input ligand: FMN 200 uM.
[3] abbreviates: Eterna round: R95, input ligand: microRNA oligo, concentration not stated.
[4] abbreviates: Eterna round: R95, input ligand: none.

Regarding “AAGAUUCUCAUGAGCUGGAACAUGAGGAUCACCCAUGUGUGUUGCUUUUUGCUCAAGGAAUCCAUUUCGAUCUUAUA [Eternabot (L1) Solution 43] (Eterna round: R97, puzzle: Sensor, turn-off variant 1)”, the “apparent KD of MS2 coat protein” value runs as follows: (input ligand: FMN 200 uM) 0.0629 µM; (input ligand: none) 0.0718 µM.

Consider “AAGCAUUGCCAAAGGUAGUGCUUAACAUGAGGAUCACCCAUGUAGGAUAUGGUAGGCAAAGCUUACCAGAAGGACAUGAUAAUU [Mat - Exclusion NG 3 - Mod of JL - D14] (Eterna round: R96, puzzle: Exclusion NG 3)”, for which the “apparent KD of MS2 coat protein” value stood at 0.43 µM (input ligand: FMN 200 uM), 0.0615 µM under setting [1] and 0.0708 µM (input ligand: none).

Turning to “AAGCCUCAGGUUAGGAUAUACGCCUGGCCGAAGGAGUAGAAGGGACAUGAGGAUCACCCAUGUGGGUUCAAAAG [Atanvege] (puzzle: Brourd's mod of Exclusion 4)”, the “apparent KD of MS2 coat protein” value runs as follows: under setting [2], 0.0525 µM; under setting [3], 0.043 µM; under setting [4], 0.0449 µM.

With “AAGCGGUGAGGAUAUACAUGAGGAUCACCCAUGUGUAUGCAGAGGGCGCGGUGUUGGUGUAGAAGGCACUGGGA [EX3 B.10] (Eterna round: R97, puzzle: Exclusion 3)”, the “apparent KD of MS2 coat protein” value was found to be 0.023 µM (input ligand: FMN 200 uM) and 0.0194 µM (input ligand: none).

Regarding “AAGGAUAGAGGAUAUACAUAGAUACAGAUUCAUGUGGUCCUACAUGAGGAUCACCCAUGUAGAAGGCUAUCCUA [Fiskers Ex 2 - 14] (puzzle: Exclusion 2)”, the “apparent KD of MS2 coat protein” value under setting [3] worked out at 0.169 µM.

As for “AAGGCGCGCGUAGGAUAUCACCGCAAAAGUCGAUGAGAAGGGCGAGUGCAUGGUGUCCUAACUUGAGGAUCACCCAAGUAAAGA [Mutated MS2 EX1.22] (Eterna round: R96, puzzle: Exclusion NG 1)”, the “apparent KD of MS2 coat protein” value reads like this: (input ligand: FMN 200 uM) 0.0679 µM; under setting [1], 0.0415 µM; (input ligand: none) 0.0565 µM.

Turning to “AAGGGUACUUUCAGAACGACAUGAGGAUCACCCAUGUAGACUGAGGAUAUCUACUACUAAGGACGGGAGAAGGCAGUGUAAUGU [Ex NG3 #73] (Eterna round: R96, puzzle: Exclusion NG 3)”, the “apparent KD of MS2 coat protein” value by setting is: (input ligand: FMN 200 uM) 0.0138 µM; under setting [1], 0.01 µM; (input ligand: none) 0.0152 µM.

Take “AAGGGUACUUUCAGAACGACAUGAGGAUCACCCAUGUAGACUGAGGAUAUCUACUUCUAAGGACGGGAGAAGGCAGUGUAAUGU [Ex NG3 #72] (Eterna round: R96, puzzle: Exclusion NG 3)”: the “apparent KD of MS2 coat protein” value reads like this: (input ligand: FMN 200 uM) 0.0114 µM; under setting [1], 0.0107 µM; (input ligand: none) 0.0135 µM.

Regarding “AAGGGUACUUUCGGAACGACAUGAGGAUCACCCAUGUAGACUGAGGAUAUCUGCUACUAAGGACGGGAGAAGGCAGUGUAAUGU [Ex NG3 #75] (Eterna round: R96, puzzle: Exclusion NG 3)”, the “apparent KD of MS2 coat protein” value (input ligand: FMN 200 uM) was 0.0185 µM, the “apparent KD of MS2 coat protein” value under setting [1] worked out at 0.0128 µM and the “apparent KD of MS2 coat protein” value (input ligand: none) was found to be 0.0187 µM.

Regarding “AAGUAACAUGAGGAUCACCCAUGUUAGGAUAUCUCGGCCGCGGCAUCGCCGCGAAACCAGAGAAGGAGCGGGUG [Erargeisar] (Eterna round: R97, puzzle: Exclusion 1)”, the “apparent KD of MS2 coat protein” value is, setting by setting: (input ligand: FMN 200 uM) 0.206 µM; (input ligand: none) 0.16 µM.

Consider “AAGUACCGUCACGAUAGUGAUGGUACAACAAGUAUGUGAACAUGAGGAUCACCCAUGUCCUCUUUUGCUCGUCUUAU [Sensor 3 - 89] (puzzle: Sensor v3, turn-off variant 2)”, for which the “apparent KD of MS2 coat protein” value by setting is: under setting [2], 0.313 µM; under setting [3], 0.0223 µM; under setting [4], 0.309 µM.

Take “AAGUAGUGUGUGAGGAUAUUGGUGGAAUGACACAUUAAGAAGGCACAUGAGGAUCACCCAUGUGGGUUGACACG [Brourd's EX4 #20] (Eterna round: R97, puzzle: Brourd's mod of Exclusion 4)”: the “apparent KD of MS2 coat protein” value (input ligand: FMN 200 uM) came out at 0.282 µM and the “apparent KD of MS2 coat protein” value (input ligand: none) worked out at 0.0471 µM.

As to “AAGUAUAGAGGAUAUAGUGAGUACUACAUGAGGAUCACCCAUGUUCUUCAAAGCGUAUUUCUAGAAGGCUGUUAAA [EX-5 Malc#18] (puzzle: Exclusion 5)”, the “apparent KD of MS2 coat protein” value came out at 0.123 µM under setting [2], 0.0487 µM under setting [3] and 0.0531 µM under setting [4].

For “AAGUCAACAUGAGGAUCACCCAUGUCCAAGUUGAUGUCCUGUGAGGAUAUGUGUAAACGGCCGGCACAGAAGGCACAAGACGCG [Eternabot solution 5] (Eterna round: R96, puzzle: Exclusion NG 3)”, the “apparent KD of MS2 coat protein” value came out at 0.0323 µM (input ligand: FMN 200 uM), 0.0304 µM under setting [1] and 0.0345 µM (input ligand: none).

Turning to “AAGUCAGCAGGAUAUGCGAUGUUGGGCUAGGUAGCGUGACCACAUGAGGAUCACCCAUGUAGAAGGGCUGGCUA [EX2 Malc#36] (Eterna round: R96, puzzle: Exclusion 2)”, the “apparent KD of MS2 coat protein” value (input ligand: FMN 200 uM) worked out at 0.0456 µM, the “apparent KD of MS2 coat protein” value under setting [1] was determined as 0.0219 µM and the “apparent KD of MS2 coat protein” value (input ligand: none) was 0.0297 µM.

As for “AAGUCGAGCGUGAGGAUAUCGUCCGAACGACCGAACGAGAAGGCACAUGAGGAUCACCCAUGUGAUUCAGCUCA [Brourd's EX4 #48] (Eterna round: R97, puzzle: Brourd's mod of Exclusion 4)”, the “apparent KD of MS2 coat protein” value (input ligand: FMN 200 uM) was found to be 0.0168 µM and the “apparent KD of MS2 coat protein” value (input ligand: none) was determined as 0.0142 µM.

On to “AAGUGGAAAACACAAUUGUACAUGAGGAUCACCCAUGUAUGUACGAAAUAUAGACAAGCUGUAUGCUCGACAACACA [Sensor v2 M17] (Eterna round: R96, puzzle: Sensor v2, turn-off variant)”, for which the “apparent KD of MS2 coat protein” value came out at 0.0363 µM (input ligand: FMN 200 uM), 0.0183 µM under setting [1] and 0.037 µM (input ligand: none).

On to “AAGUGUGCCUAGGAUAUGUUCGGCCAAGGUCAUACAGAAGGAGGCACAUGAGGAUCACCCAUGUAGUGUCCUAC [Soququis] (puzzle: Exclusion 6)”, for which the “apparent KD of MS2 coat protein” value under setting [3] amounted to 0.0596 µM.

As for “AAUAAAAGCGAGGAUAUCGUAUCGGAAACGAUACGAGAAGGCGUAACAUGAGGAUCACCCAUGUGUCCUCAAUA [Mat - Exclusion 6 - Eli Mod - D8] (Eterna round: R97, puzzle: Exclusion 6)”, the “apparent KD of MS2 coat protein” value runs as follows: (input ligand: FMN 200 uM) 1.26 µM; (input ligand: none) 0.13 µM.

As to “AAUAACAAGCCGAUCCUCCACAUGAGGAUCACCCAUGUGUUCGUCUUGUAAAGUACUAUCACGAAAGUGAUAGUACA (Eterna round: R97, puzzle: Sensor, turn-off variant 1)”, the “apparent KD of MS2 coat protein” value (input ligand: FMN 200 uM) amounted to 0.023 µM and the “apparent KD of MS2 coat protein” value (input ligand: none) is 0.0305 µM.

For the sequence “AAUAACAAGCCGAUCCUUUACAUGAGGAUCACCCAUGUGCUCGUCUUGUAAAGUACUAUCACGAAAGUGAUAGUACA (Eterna round: R97, puzzle: Sensor, turn-off variant 1)”, the “apparent KD of MS2 coat protein” value by setting is: (input ligand: FMN 200 uM) 0.028 µM; (input ligand: none) 0.027 µM.

As for “AAUAACAGAGGAUAUACUAUUUUAUGUGUUUGUUAUUUUGAACAUGAGGAUCACCCAUGUAGAAGGCUGAGUAA [JMF 36] (puzzle: Exclusion 2)”, the “apparent KD of MS2 coat protein” value under setting [3] was 0.0268 µM.

On to “AAUAACAGAGGAUAUACUAUUUUAUGUGUUUGUUGUUUUAAACAUGAGGAUCACCCAUGUAGAAGGCUGAAUGA [JMF 61] (puzzle: Exclusion 2)”, for which, under setting [3], the “apparent KD of MS2 coat protein” value came to 0.0238 µM.

Turning to “AAUAACAGAGGAUAUACUAUUUUAUGUGUUUGUUGUUUUAAACAUGAGGAUCACCCAUGUAGAAGGCUGAUUAA [JMF 46] (puzzle: Exclusion 2)”, the “apparent KD of MS2 coat protein” value under setting [3] stood at 0.0331 µM.

For “AAUAACAGAGGAUAUACUGUUUUAUGUAUUUAUUAUUUUAAACAUGAGGAUCACCCAUGUAGAAGGCUGAAUAA [JMF 12] (puzzle: Exclusion 2)”, the “apparent KD of MS2 coat protein” value under setting [3] turned out to be 0.0191 µM.

Regarding “AAUAACAGAGGAUAUACUGUUUUAUGUGUUUAUUAUUUUGAACAUGAGGAUCACCCAUGUAGAAGGCUGAAUAA [JMF 21] (puzzle: Exclusion 2)”, the “apparent KD of MS2 coat protein” value under setting [3] amounted to 0.0222 µM.

Turning to “AAUAACAGAGGAUAUACUGUUUUAUGUGUUUAUUAUUUUGAACAUGAGGAUCACCCAUGUAGAAGGCUGAAUGA [JMF 63] (puzzle: Exclusion 2)”, the “apparent KD of MS2 coat protein” value under setting [3] turned out to be 0.0276 µM.

“AAUAACAGAGGAUAUACUGUUUUAUGUGUUUGUUGUUUUGAACAUGAGGAUCACCCAUGUAGAAGGCUGAAUGA [JMF 68] (puzzle: Exclusion 2)”: under setting [3], the “apparent KD of MS2 coat protein” value is 0.0242 µM.

For the sequence “AAUAACAGAGGAUAUACUGUUUUAUGUGUUUGUUGUUUUGAACAUGAGGAUCACCCAUGUAGAAGGCUGAGUAA [JMF 41] (puzzle: Exclusion 2)”, the “apparent KD of MS2 coat protein” value under setting [3] is 0.0229 µM.

Take “AAUAACUUAGGAUAUACAUGAGGAUCACCCAUGUCCCACCCGUUACCCAUGACCAUAUGUAGAAGGAAGAAGAA [Exy#8] (Eterna round: R97, puzzle: Exclusion 3)”: the “apparent KD of MS2 coat protein” value (input ligand: FMN 200 uM) worked out at 0.028 µM and the “apparent KD of MS2 coat protein” value (input ligand: none) came out at 0.0357 µM.

For the sequence “AAUAAGCAAGGAUAUACGACGAAAAGCGUCAGUGGGCGAUGACAUGAGGAUCACCCAUGUAGAAGGUGCACAUC [Isragela] (puzzle: Exclusion 2)”, the “apparent KD of MS2 coat protein” value worked out at 0.314 µM under setting [2], 0.125 µM under setting [3] and 0.203 µM under setting [4].

Take “AAUAAGCGAGGAUAUACAUGAGGAUCACCCAUGUGGACCGGGUGUUCAGCAAAUAAAAGUAGAAGGCGCAAAAG [Tibiater] (puzzle: Exclusion 3)”: the “apparent KD of MS2 coat protein” value turned out to be 0.0291 µM under setting [2], 0.0468 µM under setting [3] and 0.0258 µM under setting [4].

For “AAUAAGGGAGGAUAUGCGGAACGGUUUGUUCUCAGUGAGGCACAUGAGGAUCACCCAUGUAGAAGGCCCGGCAA [Orinar] (Eterna round: R96, puzzle: Exclusion 2)”, the “apparent KD of MS2 coat protein” value by setting is: (input ligand: FMN 200 uM) 0.0634 µM; under setting [1], 0.0121 µM; (input ligand: none) 0.0174 µM.

Source of the values: the supplement of paper PMC9170038.
